Experiments:
[1] = target: DosP^FLAG-R97A (full-length DosP with R97A and three copies of the FLAG motif on its C-terminus) (Escherichia coli); test: cryo-EM structure
[2] = target: DosP^WT (wild-type full-length DosP, tag-free after TEV cleavage) (Escherichia coli); test: cryo-EM structure

Substance	stoichiometry N [1]	stoichiometry N [2]
DosP^FLAG-R97A (full-length DosP with R97A and three copies of the FLAG motif on its C-terminus) (enzyme)	2	
DosP^WT (wild-type full-length DosP, tag-free after TEV cleavage) (enzyme)		2

Source: article PMC11543664
